Test results as given in paper PMC5995387, “Binding of EphrinA5 to RET receptor tyrosine kinase: An in vitro study” (PLoS ONE, 2018).
Values joined by “and” are separate entries in the source; they are usually repeats but may differ in a detail not shown here. Equal entries are not always repeated.

Key:
EphA3-Fc (Mus musculus) = EphA3-Fc (Mus musculus) (UniProt P29319); details: cited from earlier work
EphA4 LBD (Homo sapiens) = EphA4 LBD (Homo sapiens) (UniProt P54764); test: SPR; details: cited from earlier work
Chain of EphA4 LBD (Homo sapiens) (P54764 30-209): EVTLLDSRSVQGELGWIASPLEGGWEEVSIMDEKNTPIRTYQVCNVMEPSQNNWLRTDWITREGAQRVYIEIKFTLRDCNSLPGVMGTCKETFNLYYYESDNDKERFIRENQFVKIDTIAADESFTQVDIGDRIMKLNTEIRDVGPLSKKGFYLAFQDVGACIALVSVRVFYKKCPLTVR

[1] = target: T1, zebrafish GDNF family receptor alpha 1 extracellular domain (zGFRα1^ECD), Flag-His8-tagged (zebrafish (Danio rerio), UniProt Q98TT9 31-351); test: native gel or EMSA; Blue Native PAGE, 4-20% gradient gel, Coomassie-stained; purified proteins mixed and incubated 30 min at room temperature, run at 4 °C; zefn-A5^ECD 8 μM, molar ratio 2:1:1:1:1 (zefn-A5^ECD:zRET^ECD:zGDNF:zGFRα1^ECD:mEphA4^LBD); band of the ternary complex checked by LC-MS/MS; details: both partners purified
T1 construct: GDNF family receptor alpha 1, zebrafish, extracellular domain, residues 31-351 of NCBI NP_571805.1; not shown: Flag, N-terminal, kept; His8, N-terminal, kept
T1 sequence (looked up): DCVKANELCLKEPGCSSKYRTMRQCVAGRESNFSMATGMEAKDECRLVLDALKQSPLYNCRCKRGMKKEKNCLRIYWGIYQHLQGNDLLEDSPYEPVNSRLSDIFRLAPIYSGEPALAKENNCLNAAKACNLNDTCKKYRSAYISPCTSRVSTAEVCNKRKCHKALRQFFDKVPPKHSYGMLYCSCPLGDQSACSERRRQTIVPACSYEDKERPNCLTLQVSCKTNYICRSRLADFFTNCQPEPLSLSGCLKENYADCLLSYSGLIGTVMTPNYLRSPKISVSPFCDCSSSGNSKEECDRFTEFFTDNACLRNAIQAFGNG

[2] = target: T2, zebrafish ephrinA5b extracellular domain (zefn-A5^ECD), Flag-His8-tagged (zebrafish (Danio rerio), UniProt P79728 21-204); test: BLI; BLItz, zefn-A5^ECD (140 μM) immobilised on Ni-NTA biosensor; SEC buffer with 0.5% Tween-20; 2 min association, 3 min dissociation; Kd from plateau values, one-site total binding model; details: both partners purified
T2 construct: ephrin-A5b, zebrafish, extracellular domain, residues 21-204 of NCBI NP_571101.1; thrombin cleavage site between the tags and the protein (pK503.9 vector); also called Danio rerio efn-A5b; efn-A5b; not shown: Flag, N-terminal, kept; His8, N-terminal, kept
T2 sequence (looked up): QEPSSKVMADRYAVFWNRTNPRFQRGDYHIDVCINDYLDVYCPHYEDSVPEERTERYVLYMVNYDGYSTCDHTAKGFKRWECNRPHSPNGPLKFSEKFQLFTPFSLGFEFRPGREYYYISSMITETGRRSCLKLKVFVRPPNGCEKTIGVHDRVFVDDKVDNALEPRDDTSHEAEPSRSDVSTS

Chain of EphA3-Fc (Mus musculus) (P29319 21-540): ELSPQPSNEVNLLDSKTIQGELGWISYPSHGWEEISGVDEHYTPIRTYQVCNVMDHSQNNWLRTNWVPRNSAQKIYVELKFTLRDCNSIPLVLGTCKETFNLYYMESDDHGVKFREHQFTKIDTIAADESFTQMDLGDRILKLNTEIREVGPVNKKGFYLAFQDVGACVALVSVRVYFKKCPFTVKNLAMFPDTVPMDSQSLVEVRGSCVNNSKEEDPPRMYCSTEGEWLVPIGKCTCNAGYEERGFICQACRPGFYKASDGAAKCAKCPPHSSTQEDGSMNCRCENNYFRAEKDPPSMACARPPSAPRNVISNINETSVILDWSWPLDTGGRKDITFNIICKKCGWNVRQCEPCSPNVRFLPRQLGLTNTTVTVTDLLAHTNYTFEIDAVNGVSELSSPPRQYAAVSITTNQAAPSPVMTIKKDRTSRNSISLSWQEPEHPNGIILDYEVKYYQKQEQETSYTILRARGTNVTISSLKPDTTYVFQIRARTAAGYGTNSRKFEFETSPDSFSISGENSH

ephrinA5 ECD (from UniProt O08543)
Kd (EphA3-Fc (Mus musculus)): 8 nM

ephrinA5 ECD (from UniProt P52803)
Kd (EphA4 LBD (Homo sapiens)): 360 nM

B1: mature zebrafish glial cell-derived neurotrophic factor (zGDNF), N-terminal Flag tag (ligand, zebrafish (Danio rerio), UniProt Q98TU0 90-235, looked up)
chain: SSDVEPQMKRDRVRQKAAANTEKSGGRGRGERKRSRGRARSRDDRVKGQGRGCLLKEIHLNVTDLDLGYRTKEELIFRYCSGPCHDAETNYDKILNNLTHNKKLDKDTPSRTCCRPIAFDDDISFLDDSLEYHTLKKHSAKKCACV
notes: GDNF, zebrafish, mature zGDNF, residues 90-236 of NCBI NP_571807.1; Written as zGDNF2 (dimer) in the complexes; concentrations were calculated for the monomeric form; also called zGDNF2; source: Hi5 insect cells (baculovirus), secreted, purified as previously described [24]; not shown: Flag, N-terminal, kept
stoichiometry N [1]: 1 zGDNF per zGFRα1^ECD (2:2, binary complex) and ~2 zGDNF per zGFRα1^ECD (ternary complex with zRET^ECD)

B2: mouse EphA4 ligand-binding domain with C-terminal human IgG1 hinge and Fc (mEphA4^LBD) (Fc fusion, mouse (Mus musculus), UniProt Q03137-1 29-210, looked up)
chain: NEVTLLDSRSVQGELGWIASPLEGGWEEVSIMDEKNTPIRTYQVCNVMEASQNNWLRTDWITREGAQRVYIEIKFTLRDCNSLPGVMGTCKETFNLYYYESDNDKERFIRESQFGKIDTIAADESFTQVDIGDRIMKLNTEIRDVGPLSKKGFYLAFQDVGACIALVSVRVFYKKCPLTVRN
notes: concentrations were calculated for the monomeric form. pMA152a vector; also called Mus musculus EphA4; source: Hi5 insect cells, purified (Protein-A Sepharose); not shown: Fc (human IgG1, with hinge region), C-terminal, kept
Kd [2]: 180 ± 10 nM

B3: zebrafish RET extracellular domain (zRET^ECD), Flag-His8-tagged (domain or fragment, zebrafish (Danio rerio), UniProt A8E7C6 22-626, looked up)
chain: GLYFPQRLYTENIYVGQQQGSPLLQVISMREFPTERPYFFLCSHRDAFTSWFHIDEASGVLYLNKTLEWSDFSSLRSGSVRSPKDLTLKVGVSSTPPMKVMCTILPTVEVKLSFINDTAPSCGQVELSTLCFPEKISNPHITENREPGALRQLRRFTHMSICPNYTISYGVVAGSSVPFAVDDSTSELVVTAQVDREEKEVYHLDIVCMVRTERNLEEVFRSLHVNIYDEDDNSPYVNGTDTEDVLVEFDRSEGTVFGTLFVYDRDTTPVYPTNQVQNKLVGTLMTNDSWIKNNFAIEHKFREEKAIFGNVRGTVHEYKLKLSQNLSVTEQRSFLLGYLVNDTTFPGPEGTVLLHFNVTVLPVPIRFSNVTYSFTVSQKATTYSQIGKVCVENCQKFKGIDVTYQLEIVDRNITAEAQSCYWAVSLAQNPNDNTGVLYVNDTKVLRRPECQELEYVVIAQEQQNKLQAKTQLTVSFQGEADSLKTDEPRFPACAEKRQRGDCEATRGLGAPTGRCQWRQGRDKGISKRYSTCSPNLGTCPDGYCDAIESKNISICPQDCSSEAIIGGYERDLYGIKAGHGTCYCFEGKCFCERDEPEDDICNDMC
notes: RET receptor tyrosine kinase, zebrafish, extracellular domain, residues 22-626 of NCBI NP_858048.2; thrombin cleavage site after the tags (pK503.9 vector); A mixture of monomer, dimer and some higher oligomers by native PAGE; not shown: Flag, N-terminal, kept; His8, N-terminal, kept
stoichiometry N [1]: ~1 zRET^ECD per zGFRα1^ECD (ternary complex with zGDNF)
